The source of these data is the supplement of paper PMC9112550, “Optimization of the antimicrobial peptide Bac7 by deep mutational scanning” (BMC Biology, 2022).

In this data set the test system is Escherichia coli TOP10. The data set can be described thus: shrunken log2 fold change of peptide-encoding DNA abundance (4.5 h post-induction vs induction); higher = less antimicrobial activity (less host growth inhibition). The following applies: time post-induction: 4.5 h; library: site-saturation at positions 5, 18, 19, 20.
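Also: peptides expressed intracellularly from a pBAD plasmid library in pooled LB shake-flask culture, induced with 0.3% L-arabinose, DNA abundance read by NGS, three biological replicates, DESeq2 with apeglm shrinkage.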

RRIRMRPPRLPRPRPRPNRSPRP: the “shrunken log2 fold change” value is -0.0367.
The result for RRIRKRPPRLPRPRPRPRKDPRP reads 0.222; that for RRIRDRPPRLPRPRPRPSCIPRP, 0.0916.
The result for RRIRFRPPRLPRPRPRPIKMPRP reads -0.243; that for RRIRKRPPRLPRPRPRPRLTPRP, 0.501.
With RRIRWRPPRLPRPRPRPCAAPRP, the “shrunken log2 fold change” value was 1.32.
As for RRIRMRPPRLPRPRPRPKPMPRP, the “shrunken log2 fold change” value was determined as 1.14.
Regarding RRIRERPPRLPRPRPRPGEIPRP, the “shrunken log2 fold change” value turned out to be 0.0895.
On to RRIRLRPPRLPRPRPRPGEPPRP, for which the “shrunken log2 fold change” value is -0.0262.
As for RRIRHRPPRLPRPRPRPRFVPRP, the “shrunken log2 fold change” value is -0.0283.
Consider RRIRFRPPRLPRPRPRPRMMPRP, for which the “shrunken log2 fold change” value was -0.404.
The result for RRIRNRPPRLPRPRPRPCMVPRP reads -0.69; that for RRIRTRPPRLPRPRPRPWFTPRP, 0.00948.
With RRIRIRPPRLPRPRPRPFMVPRP, the “shrunken log2 fold change” value is -0.975.
Regarding RRIRMRPPRLPRPRPRPANTPRP, the “shrunken log2 fold change” value was -0.0215.
Next, RRIRGRPPRLPRPRPRPGNVPRP: 0.22.
For RRIRHRPPRLPRPRPRPESGPRP, the “shrunken log2 fold change” value was -0.0115.
Take RRIRTRPPRLPRPRPRPRCTPRP: the “shrunken log2 fold change” value was -0.00178.
As to RRIRDRPPRLPRPRPRPWNTPRP, the “shrunken log2 fold change” value is -0.166.
Consider RRIRLRPPRLPRPRPRPSQYPRP, for which the “shrunken log2 fold change” value is -0.504.
On to RRIRSRPPRLPRPRPRPQETPRP, for which the “shrunken log2 fold change” value came out at 0.0728.
The result for RRIRQRPPRLPRPRPRPMELPRP reads -0.109; that for RRIRARPPRLPRPRPRPTLPPRP, 0.263; that for RRIRQRPPRLPRPRPRPHTQPRP, 0.0338.
Next, RRIRWRPPRLPRPRPRPADIPRP: 0.0169; RRIRVRPPRLPRPRPRPWLIPRP: -0.277; RRIRYRPPRLPRPRPRPEIHPRP: -0.224.
Next, RRIRVRPPRLPRPRPRPRSCPRP: 0.0646; RRIRARPPRLPRPRPRPVEAPRP: 0.365; RRIRPRPPRLPRPRPRPRGYPRP: 0.523.
With RRIRERPPRLPRPRPRPQRSPRP, the “shrunken log2 fold change” value was -0.106.
On to RRIRQRPPRLPRPRPRPLTHPRP, for which the “shrunken log2 fold change” value was found to be 0.045.
As to RRIRQRPPRLPRPRPRPDNHPRP, the “shrunken log2 fold change” value was -0.35.
Turning to RRIRLRPPRLPRPRPRPDNTPRP, the “shrunken log2 fold change” value was -0.386.
In the case of RRIRSRPPRLPRPRPRPLIPPRP, the “shrunken log2 fold change” value is -0.324.
Next, RRIRIRPPRLPRPRPRPRVPPRP: 1.5; RRIRGRPPRLPRPRPRPQWIPRP: 0.518; RRIRRRPPRLPRPRPRPSWIPRP: -0.284.
Take RRIRIRPPRLPRPRPRPGLPPRP: the “shrunken log2 fold change” value came out at 0.209.
Consider RRIRSRPPRLPRPRPRPFDQPRP, for which the “shrunken log2 fold change” value was -0.256.
Next, RRIRERPPRLPRPRPRPLRKPRP: 0.722; RRIRWRPPRLPRPRPRPQAEPRP: 0.0113.
The result for RRIRVRPPRLPRPRPRPARDPRP reads 0.355.
Next, RRIRWRPPRLPRPRPRPQVDPRP: 1.5; RRIRIRPPRLPRPRPRPRQPPRP: -0.0694.
With RRIRIRPPRLPRPRPRPEQMPRP, the “shrunken log2 fold change” value was determined as 0.224.
Regarding RRIRFRPPRLPRPRPRPVWKPRP, the “shrunken log2 fold change” value is -0.0844.
Next, RRIRERPPRLPRPRPRPEYYPRP: -0.00813.
Turning to RRIRQRPPRLPRPRPRPQDCPRP, the “shrunken log2 fold change” value is -0.186.
As to RRIRRRPPRLPRPRPRPLTSPRP, the “shrunken log2 fold change” value worked out at 0.233.
Take RRIRVRPPRLPRPRPRPMKWPRP: the “shrunken log2 fold change” value is -0.068.
Take RRIRCRPPRLPRPRPRPMRPPRP: the “shrunken log2 fold change” value was 0.214.
The result for RRIRERPPRLPRPRPRPRWSPRP reads -0.078; that for RRIRARPPRLPRPRPRPIWQPRP, 0.166; that for RRIRQRPPRLPRPRPRPETMPRP, 0.192.
The result for RRIRIRPPRLPRPRPRPANHPRP reads -0.528.
Take RRIRFRPPRLPRPRPRPAQKPRP: the “shrunken log2 fold change” value amounted to 0.166.
Next, RRIRPRPPRLPRPRPRPHMCPRP: -0.082.
As to RRIRVRPPRLPRPRPRPIFMPRP, the “shrunken log2 fold change” value is -0.363.
Regarding RRIRWRPPRLPRPRPRPFPSPRP, the “shrunken log2 fold change” value was -0.1.
For the sequence RRIRCRPPRLPRPRPRPCTRPRP, the “shrunken log2 fold change” value is -0.321.
Take RRIRGRPPRLPRPRPRPCALPRP: the “shrunken log2 fold change” value is 0.594.
The result for RRIRYRPPRLPRPRPRPKKEPRP reads -0.00181.
For RRIRWRPPRLPRPRPRPQFHPRP, the “shrunken log2 fold change” value was -0.275.
For the sequence RRIRDRPPRLPRPRPRPMWWPRP, the “shrunken log2 fold change” value is -0.0122.
The result for RRIRRRPPRLPRPRPRPQVNPRP reads -0.0663.
Take RRIRSRPPRLPRPRPRPCKGPRP: the “shrunken log2 fold change” value was -0.3.
RRIRQRPPRLPRPRPRPFLGPRP: the “shrunken log2 fold change” value is -0.38.
Consider RRIRARPPRLPRPRPRPWSAPRP, for which the “shrunken log2 fold change” value is 0.132.
Next, RRIRNRPPRLPRPRPRPVMVPRP: -0.0209; RRIRYRPPRLPRPRPRPATLPRP: -0.307; RRIRYRPPRLPRPRPRPGNQPRP: -0.252.
RRIRKRPPRLPRPRPRPAGNPRP: the “shrunken log2 fold change” value came to 0.304.
For the sequence RRIRQRPPRLPRPRPRPWSMPRP, the “shrunken log2 fold change” value is -0.0469.
Turning to RRIRRRPPRLPRPRPRPECRPRP, the “shrunken log2 fold change” value came out at 0.272.
The result for RRIRPRPPRLPRPRPRPRLFPRP reads 1.92.
As for RRIRHRPPRLPRPRPRPTVVPRP, the “shrunken log2 fold change” value is -0.00918.
The result for RRIRPRPPRLPRPRPRPIRLPRP reads 0.0338.
Next, RRIRVRPPRLPRPRPRPTCYPRP: -0.118; RRIRSRPPRLPRPRPRPDEIPRP: 0.139; RRIRSRPPRLPRPRPRPYPVPRP: -0.0856.
Regarding RRIRPRPPRLPRPRPRPLQGPRP, the “shrunken log2 fold change” value stood at 0.13.
In the case of RRIRSRPPRLPRPRPRPATCPRP, the “shrunken log2 fold change” value was -0.154.
Take RRIRWRPPRLPRPRPRPWVFPRP: the “shrunken log2 fold change” value was found to be 0.262.
Take RRIRYRPPRLPRPRPRPMFSPRP: the “shrunken log2 fold change” value was -1.07.
Next, RRIRKRPPRLPRPRPRPNNEPRP: 0.0823.
For the sequence RRIRARPPRLPRPRPRPWQHPRP, the “shrunken log2 fold change” value came to 0.0196.
For the sequence RRIRIRPPRLPRPRPRPHENPRP, the “shrunken log2 fold change” value was -0.581.
Take RRIRHRPPRLPRPRPRPVHFPRP: the “shrunken log2 fold change” value was -0.011.
The result for RRIRTRPPRLPRPRPRPHQMPRP reads 0.0521.
For the sequence RRIRVRPPRLPRPRPRPASDPRP, the “shrunken log2 fold change” value came to 0.347.
Next, RRIRARPPRLPRPRPRPEMFPRP: 0.522.
As to RRIRHRPPRLPRPRPRPGRCPRP, the “shrunken log2 fold change” value was found to be 0.127.
Next, RRIRPRPPRLPRPRPRPQCHPRP: -0.457; RRIRARPPRLPRPRPRPTSYPRP: -0.0752; RRIRSRPPRLPRPRPRPDDNPRP: 0.00575.
Take RRIRARPPRLPRPRPRPWRMPRP: the “shrunken log2 fold change” value worked out at 0.0537.
As for RRIRIRPPRLPRPRPRPCNLPRP, the “shrunken log2 fold change” value was -0.877.
On to RRIRARPPRLPRPRPRPTMLPRP, for which the “shrunken log2 fold change” value came out at 0.15.
Next, RRIRVRPPRLPRPRPRPLEAPRP: 0.242.
As for RRIRLRPPRLPRPRPRPAEIPRP, the “shrunken log2 fold change” value was -0.219.
Next, RRIRRRPPRLPRPRPRPINGPRP: -0.0719.
Next, RRIRDRPPRLPRPRPRPSIMPRP: -0.0808.
For RRIRRRPPRLPRPRPRPFDLPRP, the “shrunken log2 fold change” value was 0.0765.
In the case of RRIRNRPPRLPRPRPRPFNHPRP, the “shrunken log2 fold change” value is -1.02.
Regarding RRIRPRPPRLPRPRPRPSVFPRP, the “shrunken log2 fold change” value was -0.0552.
Next, RRIRPRPPRLPRPRPRPCQCPRP: -0.0627; RRIRTRPPRLPRPRPRPTKLPRP: -0.0813; RRIRDRPPRLPRPRPRPYCLPRP: -0.0759.
As for RRIRDRPPRLPRPRPRPIHIPRP, the “shrunken log2 fold change” value is -0.734.
Next, RRIRYRPPRLPRPRPRPPCIPRP: -0.583.
Consider RRIRIRPPRLPRPRPRPADNPRP, for which the “shrunken log2 fold change” value came to 0.00497.
Regarding RRIRWRPPRLPRPRPRPQPTPRP, the “shrunken log2 fold change” value was 0.334.
Turning to RRIRTRPPRLPRPRPRPWQLPRP, the “shrunken log2 fold change” value is -0.189.
Consider RRIRERPPRLPRPRPRPIHRPRP, for which the “shrunken log2 fold change” value was 0.0155.
RRIRCRPPRLPRPRPRPVEMPRP: the “shrunken log2 fold change” value was found to be 0.0203.
Turning to RRIRLRPPRLPRPRPRPTTRPRP, the “shrunken log2 fold change” value amounted to 0.34.
As to RRIRTRPPRLPRPRPRPWDGPRP, the “shrunken log2 fold change” value worked out at 0.0729.
As to RRIRTRPPRLPRPRPRPLWSPRP, the “shrunken log2 fold change” value came to 0.0357.
Take RRIRMRPPRLPRPRPRPWQVPRP: the “shrunken log2 fold change” value is -0.0506.
With RRIRWRPPRLPRPRPRPCFVPRP, the “shrunken log2 fold change” value is -0.144.
For RRIRPRPPRLPRPRPRPSCGPRP, the “shrunken log2 fold change” value amounted to 0.137.
For the sequence RRIRTRPPRLPRPRPRPGYTPRP, the “shrunken log2 fold change” value turned out to be 0.0635.
On to RRIRARPPRLPRPRPRPHANPRP, for which the “shrunken log2 fold change” value was -0.0153.
For RRIRGRPPRLPRPRPRPKKNPRP, the “shrunken log2 fold change” value worked out at 0.778.
